Publication PMC2659877

Tests used:
[1] = target: β-spectrin (Homo sapiens) (UniProt P11277); assay: ITC; conditions: cited from earlier work
[2] = target: β-spectrin (Homo sapiens) (UniProt P11277); assay: ITC; conditions: cited from earlier work; remark: listed apart in the source
[3] = target: β-spectrin (Homo sapiens) (UniProt P11277); assay: ITC; conditions: cited from earlier work; remark: listed apart in the source
[4] = target: β-spectrin (Homo sapiens) (UniProt P11277); assay: ITC; conditions: cited from earlier work; remark: listed apart in the source
[5] = target: β-spectrin consisting of residues 1898–2083 (Spβ) (UniProt P11277); assay: ITC
spin labeled SpαΔ 49R1 = spin labeled SpαΔ 49R1 (UniProt P02549); assay: spin label EPR titration

Substance	Kd [5] [µM]	further results
α-spectrin (from UniProt P02549)		Kd [1]: 14 µM; Kd [2]: > 200 µM; Kd [3]: 0.5 µM; Kd [4]: 0.4 µM
β-spectrin consisting of residues 1898–2083 (Spβ) (from UniProt P11277 1898-2083) (domain or fragment)		Kd (spin labeled SpαΔ 49R1): 98 µM
spin labeled SpαΔ 53R1 (from UniProt P02549 1-368) (domain or fragment)	3.3	
spin labeled SpαΔ 46R1 (from UniProt P02549 1-368) (domain or fragment)	5.9	
spin labeled SpαΔ 48R1 (from UniProt P02549 1-368) (domain or fragment)	3.1	
spin labeled SpαΔ 49R1 (from UniProt P02549 1-368) (domain or fragment)	> 30	

More lines, in order of falling Kd [5], values ahead:

Kd [5] [µM]	Substance	further results
2.9	spin labeled SpαΔ 45R1 (from UniProt P02549 1-368) (domain or fragment)	
1.5	spin labeled SpαΔ 20R1 (from UniProt P02549 1-368) (domain or fragment)	
0.9	cysteine-less fragment of the first 368 residues of α-spectrin (from UniProt P02549 1-368) (domain or fragment)	
